The supplement of paper PMC10567573

B1: FBXO39 (parent)
chain: RVFKARIYTNRYETNEEDKTLQEI
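Note: lentivirally expressed fusions sorted by FACS into six bins by GFP to DsRed ratio, PSI derived from sequencing read proportions per bin multiplied by bin number.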

Variants of: B1
Test: protein stability index of a GFP-peptide fusion (GPS, HEK-293T) (PSI 1-6); higher = more stable
Conditions: c terminus: a fixed tail appended
In the case of RVFKARIYTNRYETNEEDKTLQEW [I24W], the protein stability index is reported as 2.34. For RVFKARIYTNRYETNEEDKTLQES [I24S], the protein stability index was 3.36. With RVFKARIYTNRYETNEEDKTLQEF [I24F] the protein stability index was 2.55. RVFKARIYTNRYETNEEDKFLQEI [T20F] showed a protein stability index of 2.74. RVFKARIYTNRYETNEEDKELQEI [T20E] gave a protein stability index of 2.53. Variant RVFKARIYTNRYETNEEDKQLQEI [T20Q] has a protein stability index of 2.78. RVFKARIYTNRYETNEEDKPLQEI [T20P] gave a protein stability index of 2.73. For RVFKARIYTNRYETNEEDKWLQEI [T20W], the protein stability index was 2.49. Variant RVFKARIYTNRYETNEEDKVLQEI [T20V] has a protein stability index of 3.47. Variant RVFKARIYTNRYETNEEDKMLQEI [T20M] has a protein stability index of 3.06. In the case of RVFKARIYTNRYETNEEDKSLQEI [T20S], the protein stability index is reported as 3.2. Variant RVFKARIYTNRYETNEEDKCLQEI [T20C] has a protein stability index of 2.55. Work on RVFKARIYTNRYETNEEDKKLQEI [T20K] yielded a protein stability index of 2.53. With RVFKARIYTNRYETNEEDKDLQEI [T20D] the protein stability index was 3.48. With RVFKARIYTNRYETNEEDKGLQEI [T20G] the protein stability index was 1.79. With RVFKARIYTNRYETNEEDKNLQEI [T20N] the protein stability index was 2.57. Work on RVFKARIYTNRYETNEEDKALQEI [T20A] yielded a protein stability index of 2.87. For RVFKARIYTNRYETNEEDKILQEI [T20I], the protein stability index was 1.76. RVFKARIYTNRYETNEEDKLLQEI [T20L] gave a protein stability index of 2.38. Work on RVFKARIYTNRYETNEEDKRLQEI [T20R] yielded a protein stability index of 2.77. Variant RVFKARIYTNRYETNEEDKYLQEI [T20Y] has a protein stability index of 2.17. For RVFKARIYTNRYETNEEYKTLQEI [D18Y], the protein stability index was 2.78. Variant RVFKARIYTNRYETNEETKTLQEI [D18T] has a protein stability index of 2.36. In the case of RVFKARIYTNRYETNEEIKTLQEI [D18I], the protein stability index is reported as 2.68. With RVFKARIYTNRYETNEEHKTLQEI [D18H] the protein stability index was 2.16. In the case of RVFKARIYTNRYETNEELKTLQEI [D18L], the protein stability index is reported as 2.46. Work on RVFKARIYTNRYETNEEVKTLQEI [D18V] yielded a protein stability index of 2.4. With RVFKARIYTNRYETNEECKTLQEI [D18C] the protein stability index was 2.33. In the case of RVFKARIYTNRYETNEEPKTLQEI [D18P], the protein stability index is reported as 2.56. RVFKARIYTNRYETNEEAKTLQEI [D18A] showed a protein stability index of 3.19. RVFKARIYTNRYETNEENKTLQEI [D18N] gave a protein stability index of 2.25. RVFKARIYTNRYETNEEKKTLQEI [D18K] gave a protein stability index of 2.7. RVFKARIYTNRYETNEEFKTLQEI [D18F] gave a protein stability index of 1.67. Variant RVFKARIYTNRYETNEEQKTLQEI [D18Q] has a protein stability index of 2.78. In the case of RVFKARIYTNRYETNEEEKTLQEI [D18E], the protein stability index is reported as 2.48. With RVFKARIYTNRYETNEEWKTLQEI [D18W] the protein stability index was 2.18. RVFKARIYTNRYETNEESKTLQEI [D18S] showed a protein stability index of 1.71. RVFKARIYTNRYETNEEMKTLQEI [D18M] showed a protein stability index of 2.22. Work on RVFKARIYTNRYETNEEGKTLQEI [D18G] yielded a protein stability index of 2.53. In the case of RVFKARIYTNRYETNEERKTLQEI [D18R], the protein stability index is reported as 2.38. For RVFKARIYTNRYETNEEDNTLQEI [K19N], the protein stability index was 2.83. Work on RVFKARIYTNRYETNEEDMTLQEI [K19M] yielded a protein stability index of 2.3. RVFKARIYTNRYETNEEDYTLQEI [K19Y] gave a protein stability index of 2.57. With RVFKARIYTNRYETNEEDCTLQEI [K19C] the protein stability index was 3.04. Work on RVFKARIYTNRYETNEEDPTLQEI [K19P] yielded a protein stability index of 2.91. With RVFKARIYTNRYETNEEDQTLQEI [K19Q] the protein stability index was 3.23. Work on RVFKARIYTNRYETNEEDITLQEI [K19I] yielded a protein stability index of 2.58. RVFKARIYTNRYETNEEDWTLQEI [K19W] showed a protein stability index of 2.54. Work on RVFKARIYTNRYETNEEDFTLQEI [K19F] yielded a protein stability index of 2.61. With RVFKARIYTNRYETNEEDATLQEI [K19A] the protein stability index was 2.15. In the case of RVFKARIYTNRYETNEEDVTLQEI [K19V], the protein stability index is reported as 2.62. For RVFKARIYTNRYETNEEDTTLQEI [K19T], the protein stability index was 2.79. Variant RVFKARIYTNRYETNEEDSTLQEI [K19S] has a protein stability index of 3.39. With RVFKARIYTNRYETNEEDETLQEI [K19E] the protein stability index was 3.84. RVFKARIYTNRYETNEEDLTLQEI [K19L] gave a protein stability index of 2.44. With RVFKARIYTNRYETNEEDRTLQEI [K19R] the protein stability index was 4. Work on RVFKARIYTNRYETNEEDHTLQEI [K19H] yielded a protein stability index of 2.92. In the case of RVFKARIYTNRYETNEEDGTLQEI [K19G], the protein stability index is reported as 3.62. For RVFKARIYTNRYETNEEDKTFQEI [L21F], the protein stability index was 2.52. RVFKARIYTNRYETNEEDKTDQEI [L21D] showed a protein stability index of 3.88. With RVFKARIYTNRYETNEEDKTNQEI [L21N] the protein stability index was 3.26. For RVFKARIYTNRYETNEEDKTVQEI [L21V], the protein stability index was 2.86. For RVFKARIYTNRYETNEEDKTKQEI [L21K], the protein stability index was 2.5. RVFKARIYTNRYETNEEDKTCQEI [L21C] gave a protein stability index of 2.21. In the case of RVFKARIYTNRYETNEEDKTWQEI [L21W], the protein stability index is reported as 2.5. RVFKARIYTNRYETNEEDKTAQEI [L21A] showed a protein stability index of 2.9. RVFKARIYTNRYETNEEDKTHQEI [L21H] gave a protein stability index of 3.76. In the case of RVFKARIYTNRYETNEEDKTYQEI [L21Y], the protein stability index is reported as 1.99. RVFKARIYTNRYETNEEDKTIQEI [L21I] gave a protein stability index of 2.62. Work on RVFKARIYTNRYETNEEDKTQQEI [L21Q] yielded a protein stability index of 3.18. With RVFKARIYTNRYETNEEDKTEQEI [L21E] the protein stability index was 3.38. RVFKARIYTNRYETNEEDKTTQEI [L21T] showed a protein stability index of 2.97. For RVFKARIYTNRYETNEEDKTPQEI [L21P], the protein stability index was 3.27. RVFKARIYTNRYETNEEDKTRQEI [L21R] gave a protein stability index of 2.97. RVFKARIYTNRYETNEEDKTGQEI [L21G] gave a protein stability index of 3.2. Work on RVFKARIYTNRYETNEEDKTSQEI [L21S] yielded a protein stability index of 2.93. Variant RVFKARIYTNRYETNEEDKTMQEI [L21M] has a protein stability index of 3.24. With RVFKARIYTNRYETNEEDKTLWEI [Q22W] the protein stability index was 1.79. With RVFKARIYTNRYETNEEDKTLVEI [Q22V] the protein stability index was 1.75. Work on RVFKARIYTNRYETNEEDKTLMEI [Q22M] yielded a protein stability index of 2.5. Variant RVFKARIYTNRYETNEEDKTLTEI [Q22T] has a protein stability index of 1.98. In the case of RVFKARIYTNRYETNEEDKTLDEI [Q22D], the protein stability index is reported as 3. Variant RVFKARIYTNRYETNEEDKTLCEI [Q22C] has a protein stability index of 3.48. Variant RVFKARIYTNRYETNEEDKTLLEI [Q22L] has a protein stability index of 2.33. With RVFKARIYTNRYETNEEDKTLAEI [Q22A] the protein stability index was 3.02. In the case of RVFKARIYTNRYETNEEDKTLYEI [Q22Y], the protein stability index is reported as 2.6. For RVFKARIYTNRYETNEEDKTLGEI [Q22G], the protein stability index was 3.19. Work on RVFKARIYTNRYETNEEDKTLHEI [Q22H] yielded a protein stability index of 1.64. In the case of RVFKARIYTNRYETNEEDKTLIEI [Q22I], the protein stability index is reported as 1.4. In the case of RVFKARIYTNRYETNEEDKTLREI [Q22R], the protein stability index is reported as 2.91. RVFKARIYTNRYETNEEDKTLFEI [Q22F] gave a protein stability index of 1.76. For RVFKARIYTNRYETNEEDKTLKEI [Q22K], the protein stability index was 2.38. RVFKARIYTNRYETNEEDKTLSEI [Q22S] gave a protein stability index of 1.12. For RVFKARIYTNRYETNEEDKTLNEI [Q22N], the protein stability index was 2.49.
